A word on the Kd: it is the concentration at which binding is half-saturated. By stoichiometry N is commonly meant the number of molecules, sites or subunits per partner or assembly. What is called IC50 is the concentration that inhibits the measured activity by half.

Primed or numbered codes have the meaning given here. No end group written: not given here. FITC′ = fluorescein isothiocyanate label

Here are results for seven molecules from publication PMC5300155, “Biochemical and biophysical investigations of the interaction between human glucokinase and pro-apoptotic BAD” (PLoS ONE, 2017).

Data set [1] has as its target recombinant human BAD-GST fusion polypeptide (human) (UniProt Q92934). Description: AUC; sedimentation velocity; single proteins or 1:1 molar mixtures incubated on ice 30 min; BAD buffer pH 8.5; 20°C.
For data set [2] the target is unchanged. Description: ITC; Bcl-xL (100 μM) titrated in 4 μL injections into BAD-GST (10–18 μM) in the cell; 25°C; BAD buffer (0.1 M Tris, 0.1 M KCl, 0.5 M arginine, 2.5 mM CHAPS, 5 mM TCEP, 10% glycerol, pH 8.5). In general terms: ITC needs no label: the signal is the heat of the interaction.
Data set [3] addresses recombinant human pancreatic glucokinase (human) (UniProt P35557).
Data set [4] addresses recombinant human Bcl-xL, Δ45–84, Δ210–233 variant (human) (UniProt Q07817). Kind of data set: fluorescence polarisation; competition: 200 nM f-BH3, 50 nM Bcl-xL, BAD forms varied 0–50 μM; room temperature. (In general: Polarisation of emitted light reports the rotation of a fluorescent probe.)
Data set [5] concerns the target recombinant human BAD-GST fusion polypeptide (human) (UniProt Q92934). Description: SEC; HiPrep 16/60 Sephacryl S-200 HR, calibrated; single proteins or equimolar mixtures incubated on ice 30 min; BAD buffer pH 8.5; 4°C. For orientation: Size exclusion chromatography separates by hydrodynamic size, large species first.
Data set [6] addresses recombinant human pancreatic glucokinase (human) (UniProt P35557). This is another data set of the same source.
For data set [7] the target is unchanged. This is another data set of the same source.
The target in data set [8] is GST. Kind of data set: AUC; sedimentation velocity; single proteins or 1:1 molar mixtures incubated on ice 30 min; BAD buffer pH 8.5; 20°C.
Data set [9] has as its target T1, recombinant human Bcl-xL, Δ45–84, Δ210–233 variant (human, UniProt Q07817-1 1-209, Δ45–84).
T1 construct: Bcl-xL, human; loop 45-84 deleted and C-terminal residues 210-233 lacking; also called soluble, recombinant Bcl-xL
Kind of data set: fluorescence polarisation; 15 nM FITC peptide, Bcl-xL varied 0–2.25 μM; BAD buffer mixed with phosphate assay buffer pH 7.4; room temperature. As to conditions: both partners purified.

Data set [10] deals with T2, Bcl-xL (Homo sapiens, UniProt Q07817, DEL45-84).
T2 construct: made in house
Description: Analytical ultracentrifugation sedimentation velocity of 1:1 mixture BAD-GST and Bcl-xL. Format: binding. As to conditions: 1:1 mixture of BAD-GST and Bcl-xL, 20°C, 50,000 x g, BAD buffer pH 8.5. The method, then:
Sedimentation velocity experiments were conducted with an Optima XLI Ultracentrifuge (Beckman Coulter) using a four-hole rotor with three 420 μL samples in standard double-sector Epon centerpieces equipped with sapphire windows. Absorbance and interference data were collected simultaneously. Size-exclusion purified proteins were concentrated to OD280 nm = 0.3–1.0 prior to centrifugation. For complex formation, proteins were mixed in a 1:1 molar ratio in BAD buffer (0.1 M Tris, 0.1 M KCl, 0.5 M arginine, 2.5 mM CHAPS, 5 mM TCEP, 10% glycerol, pH 8.5) and incubated on ice 30 min prior to the start of the experiment. Experiments were carried out at 20°C and 50,000 x g. Data were analyzed with Ultrascan III software using a minimum of 70 scans per sample for analysis. Van Holde-Weischet analysis was performed to obtain S20,W values.

The nature of data set [11]: Circular dichroism spectroscopy (secondary structure). Format: physicochemical. As to conditions: far UV CD, 25°C, pH 7.8, 3–15 μM, CDPro. The method, then:
Proteins were dialyzed overnight into potassium phosphate buffer (50 mM, pH 7.8) containing KCl (50 mM), glycerol (5% v/v), and TCEP (4 mM). CD spectra were recorded on an AVIV 202 CD spectrometer at 25°C with protein concentrations ranging from 3–15 μM. Spectra were recorded from 200–260 nm in 10 mm pathlength cuvettes using a 1 nm step resolution and 3 s integration time. Three scans were recorded per sample, averaged, and baseline subtracted with appropriate buffer controls. CD signals were converted to molar ellipticity and deconvoluted using CDPro Software.

Data set [12] has as its system BAD-knockout hepatocytes. As to conditions: ref [9]; cited from earlier work. The source says: Phosphorylation of BAD modulates its participation in apoptosis and glucose metabolism. High glucose concentrations stimulate BAD phosphorylation at three serine residues, resulting in reduced pro-apoptotic activity. In particular, phosphorylation at Ser155, within the BH3 domain of murine BAD, prevents interaction with Bcl-xL, thereby quenching BAD’s apoptotic activity. […] Moreover, i ...

As to “recombinant human Bcl-xL, Δ45–84, Δ210–233 variant (from UniProt Q07817-1 1-209) (domain or fragment)”, the stoichiometry N (Bcl-xL per BAD-GST dimer) in data set [1] worked out at 2. The Kd in [2] was 7 nM.

Turning to “recombinant human BAD-GST fusion polypeptide (from UniProt Q92934 1-168) (natural protein)”, the stoichiometry N in data set [1] and in data set [5] was 2 each time. Moreover, the percent increase in GCK rate, glucose 0.5–1.0 mM, largest at 0.8 mM glucose with BAD-GST ≥ 2 μM in data set [3] was found to be 10%. For the same molecule, the IC50 in data set [4] was found to be 130 nM.

As for “BAD-GST phosphorylated in vitro with PKAc (from UniProt Q92934 1-168) (natural protein)”, the increase in GCK activity at glucose below the K0.5 value with phosphorylated BAD (> 2 μM) in [6] amounted to 15%. In addition, the IC50 in data set [4] amounted to 1600 nM. For the same molecule, the increase in GCK activity over unmodified BAD-GST at 1.0 mM glucose in data set [7] is 5%.

As for GST (natural protein), in data set [8], the stoichiometry N worked out at 2.

B1: FITC-labeled 21-residue peptide containing the BH3 domain of BAD (peptide)
peptide: NLWAAQRYGRELRRMSDK(FITC′)FVD
notes: BH3 domain of BAD, human; also called f-BH3; fluorescent BH3 peptide; source: synthetic peptide (Peptide2.0, >95%)
Turning to B1, the Kd in data set [9] came out at 180 nM.

B2: Bcl-xL: recombinant human Bcl-xL Δ45–84, Δ210–233 variant (protein)
chain: MSQSNRELVVDFLSYKLSQKGYSWSQFSDVEENRTEAPEGTESEAVKQALREAGDEFELRYRRAFSDLTSQLHITPGTAYQSFEQVVNELFRDGVNWGRIVAFFSFGGALCVESVDKEMQVLVSRIAAWMATYLNDHLEPWIQENGGWDTFVELYGNNAAAESRKGQER
modifications: left off: His tag (from the nickel affinity chromatography), end not stated, state not stated
notes: recombinant human Bcl-xL Δ45–84, Δ210–233 variant
As for B2, in data set [10], the Sedimentation coefficient is 1.3. Also, in data set [11], the Random coil content entry is given as “roughly 30%”, the α-helical content was 43% and the β-sheet content turned out to be 14%.

B3: S155D BAD variant: phosphomimic murine BAD variant, ref 9 (protein, UniProt Q61337 1-204, looked up, variant S155D)
Bcl2-associated agonist of …: MGTPKQPSLAPAHALGLRKSDPGIRSLGSDAGGRRWRPAAQSMFQIPEFEPSEQEDASATDRGLGPSLTEDQPGPYLAPGLLGSNIHQQGRAATNSHHGGAGAMETRSRHSSYPAGTEEDEGMEEELSPFRGRSRSAPPNLWAAQRYGRELRRMDDEFEGSFKGLPRPKSAGTATQMRQSAGWTRIIQSWWDRNLGKGGSTPSQ
B3: in data set [12], the “Effect on GCK activity in hepatocytes” value is “stimulates GCK activity in hepatocytes” and the “Restoration of normal glycolytic metabolism in BAD-knockout hepatocytes” value was “normal glycolytic metabolism can be restored”.
